# Results from patent CN112010972A (REYOUNG SUZHOU BIOPHARMACEUTICAL CO LTD, dated 2020).
# T1: 带有His标签的人LAG-3蛋白的胞外结构域(Acro) (human, UniProt P18627 23-450)
# T1 construct: extracellular domain; Bought protein (Acro); also called Human-LAG-3-His; 抗原; not shown: His tag
# T1 sequence (looked up): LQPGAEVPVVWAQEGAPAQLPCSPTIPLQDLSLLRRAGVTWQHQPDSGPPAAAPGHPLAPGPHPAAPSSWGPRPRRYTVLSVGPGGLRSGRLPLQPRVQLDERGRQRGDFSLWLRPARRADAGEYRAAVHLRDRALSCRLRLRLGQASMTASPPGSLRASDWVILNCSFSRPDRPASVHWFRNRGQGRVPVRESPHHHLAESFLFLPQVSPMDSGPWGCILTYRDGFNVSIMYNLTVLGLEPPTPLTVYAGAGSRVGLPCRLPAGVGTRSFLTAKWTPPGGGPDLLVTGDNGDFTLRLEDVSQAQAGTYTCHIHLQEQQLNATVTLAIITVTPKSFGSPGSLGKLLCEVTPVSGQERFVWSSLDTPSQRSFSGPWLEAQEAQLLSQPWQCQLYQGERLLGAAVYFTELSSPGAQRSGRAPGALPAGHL
# B1: 抗LAG-3人鼠嵌合抗体 78H3VL-78H3VH (antibody, V domains shown)
# VH: EVQLQQSGPVLAKPGASVKMSCKTSGYTLTDYYMNWVKQSHGKSLEWIGIINPYNGDTSYNQRFKGKATLTVDKSSSTAYMELNSLTSEDSAVYYCARDDGYYVDYFDYWGQGTTLTVSS
# VL: DIQMTQSPSSLSASLGERVSLTCRASQDIGNSLNWLQQEPDGTIKRLIYATSSLDSGVPKRFSGSRSGSDYSLTISSLESEDFVDYYCLQHASSPPTFGAGTKLELKR
# B2: 抗LAG-3人鼠嵌合抗体 17E3VL-17E3VH (antibody, V domains shown)
# VH: EVMLVESGGGLVKPGGSLKLSCAASGFTFITYAMSWVRQTPEKRLEWVASINNGGTHYPDTMKGRFTISRDNARNILYLQMSSLRSEDTAMYYCARSYNGIPHYFDYWGQGTTLTVSS
# VL: DILMTQTPASLAVSLGQRATISCRTSESIDNYGVSFMNWFQQKPGQPPRLLIYAASNQGSGVPARFSGSGSGADFSLNIHPMEEDDSALYFCQQSKEVPFTFGSGTKLEIKR
# B3: 抗LAG-3人鼠嵌合抗体 29VL-17E3VH (antibody, V domains shown)
# VH: B2 VH
# VL: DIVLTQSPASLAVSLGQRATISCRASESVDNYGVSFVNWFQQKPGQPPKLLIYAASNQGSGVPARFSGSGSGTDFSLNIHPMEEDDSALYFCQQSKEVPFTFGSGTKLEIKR
# Molecular target: T1, 带有His标签的人LAG-3蛋白的胞外结构域(Acro)
# Assay: SPR (Biacore), supernatant captured on Protein A chip, 100 nM human LAG-3 as analyte, 1:1 fit
row,Binder,Kd
1,B1,~0.1 nM
2,B2,~0.1 nM
3,B3,~0.1 nM
